Laboratory results taken from PMC1852638.
pKi: −log10 of the molar value. Like-named read-outs stand apart in the source and are kept apart here.

How the values were obtained:
[1] = target: myosin 5 heavy meromyosin (HMM) (UniProt Q99104); test: inhibition of actin-activated MgATPase
[2] = target: myosin 5 heavy meromyosin (HMM) (UniProt Q99104); test: inhibition of actin-activated MgATPase; remark: listed apart in the source

pKi [1]: 6.28 | pKi [2]: 6.12
Substance: glutathione S-transferase (GST)-47 kDa GTD fusion protein, dimer (from UniProt Q99104 1-1853) (domain or fragment)
